These results are taken from US20090130105A1 (Biogen, published 2009).

Some results are limits rather than exact numbers.

The IC50 is the concentration that gives 50% inhibition. A lower IC50 goes with greater potency in that assay. Broadly, the EC50 is the concentration that produces a half-maximal response. Read a low EC50 as a more potent agent.

Test [1] has as its target T1, human IGF-1R on H322M non-small cell lung cancer cells (human, UniProt P08069 31-1367). Put plainly: cell-based or functional assay.
The target in test [2] is T2, human IGF-1R(1-903)-Fc (human, UniProt P08069 31-933).
T2 construct: also called hIGF-1R-Fc; SDWT; not shown: human IgG1 Fc, C-terminal tag
Put plainly: ELISA, blocking of 320 nM IGF-1 His on biotinylated hIGF-1R-Fc. As to the method:
hIGF-1R-Fc was biotinylated using EZ-Link Sulfo-NHS-LC-Biotin according to the protocol provided by the manufacturer (Pierce Cat. No. 21335). Biotinylated human IGF-1R Fc (NB12453-9) at 5 μg/ml was added to the wells of SigmaScreen streptavidin-coated 96-well plates (Sigma, Cat. No. M5432-5EA) at 100 μL/well and incubated overnight at 2-8° C. The plates were then washed four times with 200 μL/well PBST. […] The dilutions were added to the plates in duplicate at 100 μL/well and the plates were incubated at RT for 1 hour. The plates were then washed four times with 200 μL/well PBST. An HRP-conjugated anti-Histag antibody (Penta-His HRP Conjugate, QIAGEN, Cat. No. 1014992) was diluted 1:1000 in PBST and added to plates at 100 μL/well, and the plates were incubated at RT for one hour. The plates were then washed four times with 200 μL/well PBST. SureBlue Reserve TMB Microwell Peroxidase Substrate (KPL, Cat. No. 53-00-01) was added to plates at 100 μL/well followed by 1% phosphoric acid at 100 μL/well once the desired reaction was observed. The absorbance of each well was determined at 450 nm, and the results were normalized and plotted against the log of antibody concentration.
On the technique in general: ELISA stands for enzyme-linked immunosorbent assay.

For test [3], the target named is T2, human IGF-1R(1-903)-Fc. Put plainly: IGF-1 blocking ELISA at 320 nM IGF-1 His on biotinylated hIGF-1R-Fc. Here is the method: (§1) The dilutions were added to the plates in duplicate at 100 μL/well and the plates were incubated at RT for 1 hour. The plates were then washed four times with 200 μL/well PBST. An HRP-conjugated anti-Histag antibody (Penta-His HRP Conjugate, QIAGEN, Cat. No. 1014992) was diluted 1:1000 in PBST and added to plates at 100 μL/well, and the plates were incubated at RT for one hour. The plates were then washed four times with 200 μL/well PBST. SureBlue Reserve TMB Microwell Peroxidase Substrate (KPL, Cat. No. 53-00-01) was added to plates at 100 μL/well followed by 1% phosphoric acid at 100 μL/well once the desired reaction was observed. The absorbance of each well was determined at 450 nm, and the results were normalized and plotted against the log of antibody concentration.
(§2) Ligand Blocking Properties.

Test [4] deals with T3, hIGF-1R-Fc mutant SD103 (D461A, V462T) (human, UniProt P08069 31-933).
T3 construct: not shown: human IgG1 Fc, C-terminal tag
Put plainly: SPR, immobilized antibody. Here is the method:
Surface plasmon resonance (SPR) experiments were performed on a Biacore 3000 instrument set to 25° C. […] The antibody sensorchip surfaces were prepared by injecting each antibody (diluted 100 μg/mL in 10 mM Acetate, pH 4.0) over EDC/NHS-activated sensorchip surfaces according to the standard protocol of the manufacturer. […] Both hIGF-1R-Fc and mIGF-1R-Fc proteins oligomerize due to the incorporation of two separate homodimeric regions (IGF-1R and IgG1-Fc). […] After, completion of the receptor-Fc loading step, flow rates were elevated to 5 μl/min. […] Dissociation was measured for 7 minutes after the antibody injections were complete. Finally, the flow rate was elevated to 30 μL/min and the chip surfaces were regenerated by 2×10 μL injections of 0.1 M glycine, pH 2.
Background: SPR reads the build-up and loss of mass on a sensor chip optically.

In test [5] the target is T1, human IGF-1R on H322M non-small cell …. Put plainly: flow cytometry on H322M cells, anti-human Fc PE secondary (FIG. 55B). Here is the method:
Cell lines were routinely cultured no greater than 20 passages. Flow cyotometric analysis of antibody binding to human cancer cells. Cells were lifted with cell dissociation buffer (Gibco catalog #13151-014), counted, washed and adjusted to 5×10⁶ cells/ml. Cells (2.5×10⁵; 50 uL) were added to each well of a 96-well round bottom plate (Costar #3799). Purified antibodies were tested at a starting concentration of 300 nM with serial half-log dilutions in FACS buffer. FACS buffer used throughout the assay was PBS (without Ca++/Mg++) containing 5% FBS. Samples were incubated on ice for 30 minutes, washed 3× with 200 uL FACS buffer and centrifuged at 1200 rpm for 3 minutes at 4° C. C2B8 (rituximab, IgG1) was used as a negative control. […] Samples were incubated for an additional 30 minutes on ice, shielded from light. Cells were washed as described above and resuspended in 100 μl FACS buffer containing propidium iodide (PI) for dead cell exclusion (BD Pharmingen, catalog# 51-66211E or 556463; use at 1:500 final in FACS buffer). Samples were run in triplicate using the FACSArray flow cytometer (Becton Dickinson) with 5000 live events collected per sample. Data analysis was performed using the GraphPad Prism version 5.0 software (GraphPad Software Inc., 11452 El Camino Real #215, San Diego, Calif. 92130). Results. […]
(Flow cytometry measures light scatter and fluorescence of single cells or particles in a stream.)

For test [6], the target named is T4, hIGF-1R-Fc mutant SD109 (Y482A, R483W) (human, UniProt P08069 31-933).
T4 construct: not shown: human IgG1 Fc, C-terminal tag
In words: SPR, Fab over captured mutant.

For test [7], the target named is T5, hIGF-1R-Fc mutant SD104 (H464A) (human, UniProt P08069 31-933).
T5 construct: not shown: human IgG1 Fc, C-terminal tag
In words: SPR, Fab over captured mutant.

Test [8] addresses T3, hIGF-1R-Fc mutant SD103 (D461A, V462T). In words: SPR, Fab over captured mutant.
The target in test [9] is T6, hIGF-1R-Fc mutant SD108 (H480E) (human, UniProt P08069 31-933).
T6 construct: not shown: human IgG1 Fc, C-terminal tag
In words: SPR, Fab over captured mutant.

Test [10] addresses T7, hIGF-1R-Fc mutant SD113 (E570A, I571T) (human, UniProt P08069 31-933).
T7 construct: not shown: human IgG1 Fc, C-terminal tag
Put plainly: SPR, Fab over captured mutant.

Test [11] concerns the target T2, human IGF-1R(1-903)-Fc. Put plainly: IGF-1 blocking ELISA: antibody titrated in 320 nM IGF-1 His on biotinylated hIGF-1R-Fc on streptavidin plates, bound ligand detected with anti-His-HRP. Here is the method:
as §1, §2

T2 sequence (P08069 31-933): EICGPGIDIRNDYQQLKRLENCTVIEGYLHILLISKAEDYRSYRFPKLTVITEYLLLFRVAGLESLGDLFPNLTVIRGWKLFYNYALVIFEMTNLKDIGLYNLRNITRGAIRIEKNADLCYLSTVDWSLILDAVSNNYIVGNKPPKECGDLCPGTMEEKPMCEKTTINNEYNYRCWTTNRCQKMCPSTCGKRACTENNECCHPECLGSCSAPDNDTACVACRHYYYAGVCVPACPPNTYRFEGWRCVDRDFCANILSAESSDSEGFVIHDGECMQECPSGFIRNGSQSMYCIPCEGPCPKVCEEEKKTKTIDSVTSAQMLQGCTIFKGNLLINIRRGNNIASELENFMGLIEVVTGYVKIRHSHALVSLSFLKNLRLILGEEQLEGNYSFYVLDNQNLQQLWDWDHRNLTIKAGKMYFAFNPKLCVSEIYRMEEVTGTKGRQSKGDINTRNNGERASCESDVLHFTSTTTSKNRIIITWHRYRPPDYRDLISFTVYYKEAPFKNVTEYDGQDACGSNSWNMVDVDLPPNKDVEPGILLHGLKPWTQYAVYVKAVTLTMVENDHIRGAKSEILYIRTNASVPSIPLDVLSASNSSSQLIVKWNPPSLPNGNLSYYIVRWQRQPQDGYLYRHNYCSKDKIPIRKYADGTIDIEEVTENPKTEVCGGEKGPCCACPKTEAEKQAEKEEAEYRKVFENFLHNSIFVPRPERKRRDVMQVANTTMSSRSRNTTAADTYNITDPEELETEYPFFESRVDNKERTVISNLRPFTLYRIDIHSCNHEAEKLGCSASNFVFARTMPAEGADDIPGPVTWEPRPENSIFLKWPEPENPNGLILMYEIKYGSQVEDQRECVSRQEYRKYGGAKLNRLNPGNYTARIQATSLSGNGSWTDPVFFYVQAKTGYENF
T1 sequence (P08069 31-1367, stated change not applied): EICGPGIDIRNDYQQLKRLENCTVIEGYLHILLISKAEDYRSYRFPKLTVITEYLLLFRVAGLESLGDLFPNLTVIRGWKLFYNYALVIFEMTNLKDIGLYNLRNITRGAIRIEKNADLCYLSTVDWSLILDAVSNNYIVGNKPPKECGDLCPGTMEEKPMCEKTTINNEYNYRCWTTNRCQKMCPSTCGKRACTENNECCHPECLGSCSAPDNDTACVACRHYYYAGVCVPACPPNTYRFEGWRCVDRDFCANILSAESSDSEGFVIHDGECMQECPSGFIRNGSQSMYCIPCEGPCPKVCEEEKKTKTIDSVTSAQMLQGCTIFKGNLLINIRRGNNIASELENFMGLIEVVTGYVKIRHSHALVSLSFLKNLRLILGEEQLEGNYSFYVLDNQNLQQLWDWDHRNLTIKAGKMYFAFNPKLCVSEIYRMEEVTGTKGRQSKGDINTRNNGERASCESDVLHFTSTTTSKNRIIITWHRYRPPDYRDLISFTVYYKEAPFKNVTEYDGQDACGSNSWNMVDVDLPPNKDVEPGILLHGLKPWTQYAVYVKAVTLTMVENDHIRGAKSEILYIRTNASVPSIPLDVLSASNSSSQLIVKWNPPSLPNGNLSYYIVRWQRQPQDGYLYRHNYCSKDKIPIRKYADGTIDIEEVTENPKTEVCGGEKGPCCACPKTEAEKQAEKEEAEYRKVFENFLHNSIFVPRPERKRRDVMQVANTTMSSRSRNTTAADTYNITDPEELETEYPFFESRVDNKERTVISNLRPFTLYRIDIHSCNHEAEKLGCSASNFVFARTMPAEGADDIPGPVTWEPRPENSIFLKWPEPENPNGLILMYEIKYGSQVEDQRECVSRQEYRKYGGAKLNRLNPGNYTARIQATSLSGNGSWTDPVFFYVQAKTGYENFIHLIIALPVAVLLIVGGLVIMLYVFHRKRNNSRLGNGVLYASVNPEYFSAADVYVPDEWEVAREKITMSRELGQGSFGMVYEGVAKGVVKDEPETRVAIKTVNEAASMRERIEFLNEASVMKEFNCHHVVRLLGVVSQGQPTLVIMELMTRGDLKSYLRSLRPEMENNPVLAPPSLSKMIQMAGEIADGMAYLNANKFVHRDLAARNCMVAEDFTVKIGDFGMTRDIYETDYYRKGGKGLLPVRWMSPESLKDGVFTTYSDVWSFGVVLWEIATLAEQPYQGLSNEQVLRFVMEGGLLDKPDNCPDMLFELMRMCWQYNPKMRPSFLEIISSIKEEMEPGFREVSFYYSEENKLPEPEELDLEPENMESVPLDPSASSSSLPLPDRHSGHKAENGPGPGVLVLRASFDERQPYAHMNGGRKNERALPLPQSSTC
T3 sequence (P08069 31-933 D491A/V492T): as the sequence (P08069 31-933) above, with D461A, V462T counted along it
T7 sequence (P08069 31-933 E600A/I601T): as the sequence (P08069 31-933) above, with E570A, I571T counted along it
T5 sequence (P08069 31-933 H494A): as the sequence (P08069 31-933) above, with H464A counted along it
T4 sequence (P08069 31-933 Y512A/R513W): as the sequence (P08069 31-933) above, with Y482A, R483W counted along it
T6 sequence (P08069 31-933 H510E): as the sequence (P08069 31-933) above, with H480E counted along it

B1: M13-C06 antibody (antibody, V domains shown)
VH: EVQLLESGGGLVQPGGSLRLSCAASGFTFSIYRMQWVRQAPGKGLEWVSGISPSGGTTWYADSVKGRFTISRDNSKNTLYLQMNSLRAEDTAVYYCARWSGGSGYAFDIWGQGTMVTVSS
VL: DIQMTQSPLSLSASVGDRVTITCQASRDIRNYLNWYQQKPGKAPKLLIYDASSLQTGVPSRFGGSGSGTDFSFTIGSLQPEDIATYYCQQFDSLPHTFGQGTKLEIK
notes: Fully human full-length antibody (ATCC PTA-7444); also called M13.C06.G4.P.agly; M13-C06.G4P.agly
For B1, the “reduction of surface IGF-1R after 24 hours (FACS, H322M cells)” value in test [1] was over 70%. In the test with human IGF-1R(1-903)-Fc [2], this molecule came in with a half-maximal inhibitory concentration (IC50) of 1.3 nM. In addition, the “IC50 (read off the curve)” value in the test with human IGF-1R(1-903)-Fc [3] is about 1 nM. The binding result in test [4] is reported as “no binding”. The molecule further registered an EC50 in test [5] of 0.25 nM.

B2: M13-C06 Fab (Fab, V domains shown)
VH: EVQLLESGGGLVQPGGSLRLSCAASGFTFSIYRMQWVRQAPGKGLEWVSGISPSGGTTWYADSVKGRFTISRDNSKNTLYLQMNSLRAEDTAVYYCARWSGGSGYAFDIWGQGTMVTVSS
VL: DIQMTQSPLSLSASVGDRVTITCQASRDIRNYLNWYQQKPGKAPKLLIYDASSLQTGVPSRFGGSGSGTDFSFTIGSLQPEDIATYYCQQFDSLPHTFGQGTKLEIK
notes: Fab made by enzymatic digestion of the IgG
For B2, the binding result in [6], in [7], in test [8], in test [9] and in test [10] was “no binding (tested: up to 10 nM Fab)” each time. For the same molecule, the “IC50 (read off the curve)” value in the test with human IGF-1R(1-903)-Fc [11] is about 1 nM.
